This data set deals with the molecule itself. Briefly: crystal structure.

The text below walks through data of paper PMC9204835 (Journal of the American Chemical Society, 2022).

B1: SpeY-E269A/E270A double mutant (enzyme, Streptomyces spectabilis ATCC 27741)
chain: MSVRLADGKVRNPEGIEVNASLQCNMRCQSCAHLSPLYRRENADPAEIHDTLSVLARSYHASYAKIMGGEPLLHPDVVGLIEAVRATGISDTVLVATNGTLLHRATERFWQAVDSLEISVYPSRMIAPEEIERYRVLAREHGVSLLVNYYGHFRAVYSESGTDAPDLVRDVFDTCKLAHFWNSHTVYDGWLYRCPQSVFMPRQLRDGGWDPRVDGLRIEDDPAFLERLHRFLTADDPLRACRNCLGSVGKLHPHQELPRAGWQVTEQLAALVDYPFLKVCKDDITADDGCVERSLSAPVGGA
As for B1, the binding result was “binds”.
